In the RNAGym collection of RNA variant scans (doi:10.7554/elife.80360):

B1: Hairpin Ribozyme (parent)
chain: GUCCUCUUUCACGUGCGCGUGAAAGAGAGAAGUGAACCAGAGAAACACACGUUGUGGUAUAUUACCUGGUA

Variants of: B1
Assay: self-cleavage, relative activity (ratio to wild type); higher = more cleavage; co-transcriptional

Row | Variant | self-cleavage
1 | A64U U70C | 0.0932
2 | C6U | 0.826
3 | A35U A49G | 0.31
4 | G1C C65A | 0.141
5 | C6U A41U | 0.977
6 | C18A A49C | 0.208
7 | G21A C66A | 0.201
8 | U9G C10A | 0.735
9 | A23C A47U | 0.0967
10 | A23C G42C | 0.422
11 | A24U A71U | 0.783
12 | G15A G54A | 0.572
13 | A24G A49C | 0.163
14 | C50A A71U | 0.227
15 | U5G C6U | 0.151
16 | A22G A49G | 0.345
17 | C3G | 0.296
18 | G25U G51A | 0.613
19 | A24G A26C | 0.367
20 | G1A U67C | 0.178
21 | U7G A45U | 0.2

Row | Variant | self-cleavage
22 | U58C U60G | 0.742
23 | C3A A36C | 0.497
24 | C6A U33G | 0.149
25 | A24C C50U | 0.418
26 | A26U G32U | 0.202
27 | G34U A44G | 0.348
28 | C6U A45C | 0.0819
29 | A43U U62A | 0.227
30 | A24U A47C | 0.3
31 | C16U C38U | 0.443
32 | A59C A64U | 0.0804
33 | G13C A30C | 0.112
34 | A11C A24C | 0.709
35 | U2G A49G | 0.241
36 | G13U A59G | 0.0932
37 | G34C G51C | 1.44
38 | U8C C10U | 0.564
39 | C38A G40C | 0.103
40 | C38U G57U | 0.175
41 | G19C A35G | 0.74
42 | A39C G40A | 0.112

Row | Variant | self-cleavage
43 | A24U A64G | 0.492
44 | G17A C66G | 0.268
45 | C65A U67C | 0.228
46 | G42C A49G | 0.244
47 | U7A G27C | 0.197
48 | U14A U52C | 0.788
49 | G56A G69U | 0.258
50 | U63A C65U | 0.0803
51 | U5A G57C | 0.231
52 | U9G C65G | 0.207
53 | U52C U67G | 0.276
54 | G25C G34A | 0.821
55 | U20C G34A | 1.15
56 | A31G A43C | 0.0574
57 | A23G C46U | 0.0862
58 | G40C U53A | 0.235
59 | G42C U52A | 0.256
60 | U20A A31G | 0.466
61 | A28C U58A | 0.401
62 | U5C A71C | 1.16
63 | G1C G32A | 0.198

Row | Variant | self-cleavage
64 | G13C G19C | 0.58
65 | G13C G42U | 0.201
66 | C38U U52A | 0.509
67 | G17C A45U | 0.12
68 | G34A G54A | 0.745
69 | U8C A30C | 0.201
70 | A41U A61G | 0.148
71 | A22C U33G | 0.0647
72 | U33G U58G | 0.155
73 | C4G A44U | 0.164
74 | C3U U53A | 0.495
75 | U52A G54A | 0.621
76 | U67C U70G | 0.269
77 | G51U U62C | 0.324
78 | U14C U63A | 0
79 | G17U A71C | 1.39
80 | U9G A36G | 0.793
81 | G29U C37A | 0.163
82 | C6A A61G | 0.137
83 | C3G G56A | 0.115
84 | C6U U7G | 0.449
